Broadly, the Kd is the free concentration of one partner at which half of the binding sites on the other are occupied at equilibrium, for simple one-to-one binding. Higher therefore signals weaker binding.

The results in this text go back to patent US20190367620A1 (Merck KGaA, published 2019).

Assay in all cases: SPR as in Example 1.8
Assay [1] deals with T1, human FGFR1b-IIIc extracellular domain with a HIS tag (human, UniProt P11362 22-376).
T1 construct: also called huFGFR1b-IIIc; hFGFR1b-IIIc
T1 sequence: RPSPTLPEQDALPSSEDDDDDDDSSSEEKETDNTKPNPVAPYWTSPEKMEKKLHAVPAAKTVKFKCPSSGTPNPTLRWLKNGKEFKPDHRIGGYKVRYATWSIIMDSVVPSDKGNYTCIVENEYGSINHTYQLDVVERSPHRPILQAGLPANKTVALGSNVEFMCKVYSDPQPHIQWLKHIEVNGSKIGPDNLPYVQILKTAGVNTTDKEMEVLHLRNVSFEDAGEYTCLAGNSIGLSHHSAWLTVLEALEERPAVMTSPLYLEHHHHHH
How it is done: (§1) Binding affinities of anti-FGFR1 antibodies to FGFR1 were measured by Surface Plasmon Resonance (SPR) using a GE Healthcare BIAcore 4000 instrument as follows. Goat anti-human Fc antibody (Jackson ImmunoResearch Laboratories #109-005-098) was first immobilized on BIAcore carboxymethylated dextran CM5 chip using direct coupling to free amino groups following the procedure described by the manufacturer. Antibodies were then captured on the CM5 biosensor chip to achieve approximately 200 response units (RU). Binding measurements were performed using the running HBS-EP+ buffer. A 2-fold dilution series of His-tagged FGFR1 proteins were injected at a flow rate of 30 μl/min at 25° C. Association rates (kₒₙ, per mol/s) and dissociation rates (koff, per s) were calculated using a simple 1:1 Langmuir binding model (Biacore 4000 Evaluation Software). The equilibrium dissociation constant (KD, mol) was calculated as the ratio of koff/kₒₙ.
(§2) To obtain a finer, residue-level mapping of the epitope and to complement the HD exchange data, molecular modelling and manual inspection of the crystal structure of FGFR1 [(Beenken et al. 2012); PDB record 3OJV] was used to select solvent exposed residues within and around the epitope identified by HD exchange. The selected residues were mutated either to alanine (large to small) or to glycine if the selected residue was alanine. In total 35 point mutants were designed, expressed and purified in HEK cells, and tested for binding to mAb #A08 using surface plasmon resonance as described in Example 1.8. The affinity of the antibody for wild-type and each mutant was determined and used to calculate the contribution of each epitope residue to the binding energy.

For assay [2], the target named is T2, FGFR1 D2 point mutant E50A (human, UniProt P11362 22-254).
T2 chain: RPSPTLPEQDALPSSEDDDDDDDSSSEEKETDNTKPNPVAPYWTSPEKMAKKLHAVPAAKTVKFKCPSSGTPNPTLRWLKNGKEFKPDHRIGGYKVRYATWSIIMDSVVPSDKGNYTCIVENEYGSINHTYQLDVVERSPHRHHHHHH
The protocol:
as §1, §2

Assay [3] deals with T3, FGFR1 D2 point mutant H54A (human, UniProt P11362 22-254).
T3 chain: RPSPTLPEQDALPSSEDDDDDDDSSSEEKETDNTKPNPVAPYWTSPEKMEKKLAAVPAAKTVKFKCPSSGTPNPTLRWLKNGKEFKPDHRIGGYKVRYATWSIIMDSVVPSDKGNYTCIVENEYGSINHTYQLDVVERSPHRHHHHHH
The protocol:
as §1, §2

Assay [4] addresses T4, FGFR1 D2 point mutant V56A (human, UniProt P11362 22-254).
T4 chain: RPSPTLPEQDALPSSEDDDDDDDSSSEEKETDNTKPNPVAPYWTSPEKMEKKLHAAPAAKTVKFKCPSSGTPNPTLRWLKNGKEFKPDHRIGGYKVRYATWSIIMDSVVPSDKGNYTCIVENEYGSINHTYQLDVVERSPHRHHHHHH
How it is done:
as §1, §2

Assay [5] deals with T5, FGFR1 D2 point mutant P87A (human, UniProt P11362 22-254).
T5 chain: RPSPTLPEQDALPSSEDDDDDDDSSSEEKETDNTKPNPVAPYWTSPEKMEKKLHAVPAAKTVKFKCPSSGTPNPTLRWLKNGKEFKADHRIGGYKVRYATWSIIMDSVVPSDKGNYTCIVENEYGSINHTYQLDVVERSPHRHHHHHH
The protocol: as §1, §2

Assay [6] has as its target T6, FGFR1 D2 point mutant H89A (human, UniProt P11362 22-254).
T6 chain: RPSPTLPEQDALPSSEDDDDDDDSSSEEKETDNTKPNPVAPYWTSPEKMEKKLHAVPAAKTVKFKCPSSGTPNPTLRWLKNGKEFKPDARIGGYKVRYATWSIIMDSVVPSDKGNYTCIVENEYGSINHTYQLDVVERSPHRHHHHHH
How it is done: as §1, §2

Assay [7] addresses T7, FGFR1 D2 point mutant I91A (human, UniProt P11362 22-254).
T7 chain: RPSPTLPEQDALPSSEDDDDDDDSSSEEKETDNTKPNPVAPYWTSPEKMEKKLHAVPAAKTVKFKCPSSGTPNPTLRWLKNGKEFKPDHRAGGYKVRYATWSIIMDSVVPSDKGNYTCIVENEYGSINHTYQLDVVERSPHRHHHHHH
The protocol: as §1, §2

In assay [8] the target is T8, FGFR1 D2 point mutant Y94A (human, UniProt P11362 22-254).
T8 construct: Uncharacteristic melting curve
T8 chain: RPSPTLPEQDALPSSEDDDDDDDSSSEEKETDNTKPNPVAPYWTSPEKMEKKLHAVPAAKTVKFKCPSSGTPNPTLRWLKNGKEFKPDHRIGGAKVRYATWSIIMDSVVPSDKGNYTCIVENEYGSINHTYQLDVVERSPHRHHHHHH
The protocol:
as §1, §2

Assay [9] deals with T9, FGFR1 D2 point mutant S102A (human, UniProt P11362 22-254).
T9 chain: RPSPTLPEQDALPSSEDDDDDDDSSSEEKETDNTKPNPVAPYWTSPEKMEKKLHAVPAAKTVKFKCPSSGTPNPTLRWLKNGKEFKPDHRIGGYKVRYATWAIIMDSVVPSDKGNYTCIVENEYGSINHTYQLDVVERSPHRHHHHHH
The protocol: as §1, §2

Assay [10] concerns the target T10, FGFR1 D2 point mutant S107A (human, UniProt P11362 22-254).
T10 chain: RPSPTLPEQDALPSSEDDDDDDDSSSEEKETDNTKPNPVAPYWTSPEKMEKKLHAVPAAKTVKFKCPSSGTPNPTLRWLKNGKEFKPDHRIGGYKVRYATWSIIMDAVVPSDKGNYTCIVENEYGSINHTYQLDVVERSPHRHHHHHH
How it is done:
as §1, §2

B1: mAb #A08 (antibody, V domains shown)
VH: EVQLQESGPGLVKPSGTLSLTCAVSGGSISSNNWWSWVRQPPGKGLEWIGEIYHSGSTSYNPSLKSRVTISVDKSKNQFSLKLNSVTAADTAVYYCARGTDWFDPWGQGTLVTVSS
VL: QAVLTQPPSVSVAPGQTARITCGGNNIGSESVHWYQQKPGQAPVLVVYDDSDRPSGIPERFSGSNSGNTATLTISRVEAGDEADYYCQVWDSTSDHRVFGGGTKLTVL
notes: Only variable domains are tied to the name mAb #A08 (hit); also called #A08 hit; mAb #08
With B1, the Kd in [1] stood at 0.48 nM; in [2], 0.2 nM; in assay [3], 0.36 nM; in assay [4] it was 0.27 nM; in [5], 0.22 nM; in assay [6] it was 0.19 nM. The Kd is 0.19 nM in [7], 0.99 nM in [8], 0.16 nM in [9] and 0.24 nM in [10].
